The values that follow come from patent publication US7067474B1, “Agents for treating human illnesses based on β-catenin, and the production and use thereof” (Max-Delbruck-Centrum fur Molekulare Medizin, priority 1998, dated 2006).

What all share (format): binding
Test [1] has as its target T1, conductin (Mus musculus, UniProt O88566).
T1 construct: conductin for the amino acids Ala342–ARG465; expressed in transfected cells; host or cells: yeast (two-hybrid, Matchmaker, Clontech)
As to the kind of experiment: yeast 2-hybrid: interaction of β-catenin mutants with conductin. To be noted: for Interaction With Conductin, share of wild type β-catenin interaction: yeast 2-hybrid, alanine mutants. In short, it runs like this: (§1)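 Alanine-substituted human β-catenin mutants (armadillo repeat 3 to C-terminus, from Leu218) fused to Gal4 activation domain; partner fragments fused to LexA: E-cadherin Gln773–Asp884, APC His1012–Glu1215 or Ser1259–Asp1400, conductin Ala342–Arg465. Interaction quantified by β-galactosidase reporter activity in yeast.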

The target in test [2] is T2, E-cadherin (Mus musculus, UniProt P09803).
T2 construct: E-cadherin for the amino acids Gin773–Asp884 (cytoplasmatic domain); expressed in transfected cells; host or cells: yeast (two-hybrid, Matchmaker, Clontech)
T2 sequence (P09803 773-884): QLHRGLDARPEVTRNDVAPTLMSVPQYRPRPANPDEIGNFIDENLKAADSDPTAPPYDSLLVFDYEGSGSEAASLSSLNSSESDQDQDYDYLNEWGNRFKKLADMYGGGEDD
The test can be described thus: yeast 2-hybrid: interaction of β-catenin mutants with E-cadherin. Particulars: alanine mutants. The procedure: The mutagenesis of β-catenin in the armadillo repeats 3–8 was carried out by means of the “mutagenesis kit” of the company Clontech according to the producer's record and the mutants were checked by sequencing (FIG. 5). In all mutants the original amino acid was substituted by alanine. For analyzing the interactions the cDNA of human β-catenin (armadillo repeat 3 up to the C-terminal end of the protein) coding for the amino acids Leu218–Leu7 μl or its mutants was cloned into the fusion vector for the activation domain of Gal-4 (pGAD424, Clontech). The cDNA for the binding domains of the interaction partners was cloned into the Lex-A fusion vector BTM 116. To this end, the cDNA of LEF-1 for the amino acids 1–99, conductin for the amino acids Ala342–ARG465; of human APC for the amino acids His1012–Glu1215 (APC 15 amino acid repeats) and for the amino acids Ser1259Asp 1400 (APC 20 amino acid repeats) and E-cadherin for the amino acids Gin773–Asp884 (cytoplasmatic domain) were amplified with the respective primers PCR. The interaction of the Lex-A hybrids with β-catenin and its mutants was quantified by means of the β-galactosidase reporter activity in the yeast 2-hybrid system (report: “Matchmaker”. Clontech) (Tab. 2 and FIG. 6).

For test [3], the target named is T3, APC (15 amino acid repeats) (Homo sapiens, UniProt P25054).
T3 construct: of human APC for the amino acids His1012–Glu1215 (APC 15 amino acid repeats); expressed in transfected cells; host or cells: yeast (two-hybrid, Matchmaker, Clontech)
T3 sequence (P25054 1006-1209 limits assumed): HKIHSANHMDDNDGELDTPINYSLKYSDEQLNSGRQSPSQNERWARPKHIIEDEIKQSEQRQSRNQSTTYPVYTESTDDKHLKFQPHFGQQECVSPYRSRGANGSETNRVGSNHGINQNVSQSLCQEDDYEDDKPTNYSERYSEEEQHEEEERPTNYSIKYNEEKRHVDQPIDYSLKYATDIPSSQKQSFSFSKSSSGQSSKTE
As to the kind of experiment: yeast 2-hybrid: interaction of β-catenin mutants with APC 15 amino acid repeats. Particulars: yeast 2-hybrid, alanine mutants. In short, it runs like this:
as §1

For test [4], the target named is T4, APC (20 amino acid repeats) (Homo sapiens, UniProt P25054).
T4 construct: for the amino acids Ser1259Asp 1400 (APC 20 amino acid repeats); expressed in transfected cells; host or cells: yeast (two-hybrid, Matchmaker, Clontech)
T4 sequence (P25054 1253-1394 limits assumed): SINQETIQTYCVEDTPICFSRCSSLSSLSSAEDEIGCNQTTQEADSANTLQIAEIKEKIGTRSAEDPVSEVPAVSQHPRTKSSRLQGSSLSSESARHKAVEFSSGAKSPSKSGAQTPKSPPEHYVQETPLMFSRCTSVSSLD
As to the kind of experiment: yeast 2-hybrid: interaction of β-catenin mutants with APC 20 amino acid repeats. To be noted: yeast 2-hybrid, alanine mutants. The gist of the method:
as §1

Test [5] has as its target T5, LEF-1 (Mus musculus, UniProt P27782).
T5 construct: the cDNA of LEF-1 for the amino acids 1–99; expressed in transfected cells; host or cells: yeast (two-hybrid, Matchmaker, Clontech)
The test can be described thus: yeast 2-hybrid: interaction of β-catenin mutants with LEF-1. To be noted: yeast 2-hybrid, alanine mutants.

T1 sequence (O88566 343-465 limits assumed): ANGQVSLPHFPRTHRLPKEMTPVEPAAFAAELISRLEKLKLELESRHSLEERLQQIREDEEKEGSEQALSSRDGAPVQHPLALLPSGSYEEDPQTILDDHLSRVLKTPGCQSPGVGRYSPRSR
T5 sequence (P27782 1-99): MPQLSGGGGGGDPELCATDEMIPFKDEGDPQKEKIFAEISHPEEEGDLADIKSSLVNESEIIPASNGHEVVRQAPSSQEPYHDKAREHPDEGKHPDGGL

B1: Trp 338: human β-catenin mutant, Trp 338 substituted by alanine (arm 5) (protein)
chain: LHNLSHHREGLLAIFKSGGIPALVKMLGSPVDSVLFYAITTLHNLLLHQEGAKMAVRLAGGLQKMVALLNKTNVKFLAITTDCLQILAYGNQESKLIILASGGPQALVNIMRTYTYEKLLATTSRVLKVLSVCSSNKPAIVEAGGMQALGLHLTDPSQRLVQNCLWTLRNLSDAATKQEGMEGLLGTLVQLLGSDDINVVTCAAGILSNLTCNNYKNKMMVCQVGGIEALVRTVLRAGDREDITEPAICALRHLTSRHQEAEMAQNAVRLHYGLPVVVKLLHPPSHWPLIKATVGLIRNLALCPANHAPLREQGAIPRLVQLLVRAHQDTQRRTSMGGTQQQFVEGVRMEEIVEGCTGALHILARDVHNRIVIRGLNTIPLFVQLLYSPIENIQRVAAGVLCELAQDKEAAEAIEAEGATAPLTELLHSRNEGVATYAAAVLFRMSEDKPQDYKKRLSVELTSSLFRTEPMAWNETADLGLDIGAQGEPLGYRQDDPSYRSFHSGGYGQDALGMDPMMEHEMGGHHPGADYPVDGLPDLGHAQDLMDGLPPGDSNQLAWFDTDL
modifications: left off: large carriers; small tags and cut ends
On to B1, for which, in test [1], the “Interaction With Conductin, share of wild type β-catenin interaction” value is 20%. The interaction with conductin result in test [1] (β-catenin mutation, in words) is given as “no interaction with conductin”. The “Interaction With E-Cadherin, share of wild type β-catenin interaction” value in test [2] was “— (Interactions marked by — correspond to 60–100% of the wild type interaction)”. In test [3], the “Interaction With APC-15, share of wild type β-catenin interaction” value was “— (Interactions marked by — correspond to 60–100% of the wild type interaction)”. The “Interaction With APC-20, share of wild type β-catenin interaction” value in test [4] is reported as 55%. In addition, in test [5], the “Interaction With LEF-1, share of wild type β-catenin interaction” value is recorded as “— (Interactions marked by — correspond to 60–100% of the wild type interaction)”.

B2: Lys 292: human β-catenin mutant, Lys 292 substituted by alanine (arm 4) (protein)
chain: LHNLSHHREGLLAIFKSGGIPALVKMLGSPVDSVLFYAITTLHNLLLHQEGAKMAVRLAGGLQKMVALLNKTNVAFLAITTDCLQILAYGNQESKLIILASGGPQALVNIMRTYTYEKLLWTTSRVLKVLSVCSSNKPAIVEAGGMQALGLHLTDPSQRLVQNCLWTLRNLSDAATKQEGMEGLLGTLVQLLGSDDINVVTCAAGILSNLTCNNYKNKMMVCQVGGIEALVRTVLRAGDREDITEPAICALRHLTSRHQEAEMAQNAVRLHYGLPVVVKLLHPPSHWPLIKATVGLIRNLALCPANHAPLREQGAIPRLVQLLVRAHQDTQRRTSMGGTQQQFVEGVRMEEIVEGCTGALHILARDVHNRIVIRGLNTIPLFVQLLYSPIENIQRVAAGVLCELAQDKEAAEAIEAEGATAPLTELLHSRNEGVATYAAAVLFRMSEDKPQDYKKRLSVELTSSLFRTEPMAWNETADLGLDIGAQGEPLGYRQDDPSYRSFHSGGYGQDALGMDPMMEHEMGGHHPGADYPVDGLPDLGHAQDLMDGLPPGDSNQLAWFDTDL
modifications: left off: large carriers; small tags and cut ends
Consider B2, for which the “Interaction With Conductin, share of wild type β-catenin interaction” value in test [1] was found to be 5%. For the same molecule, the “Interaction With E-Cadherin, share of wild type β-catenin interaction” value in test [2] was “— (Interactions marked by — correspond to 60–100% of the wild type interaction)”. Also, the “Interaction With APC-15, share of wild type β-catenin interaction” value in test [3] is reported as “— (Interactions marked by — correspond to 60–100% of the wild type interaction)”. Besides, the “Interaction With APC-20, share of wild type β-catenin interaction” value in test [4] was 28%. For the same molecule, in test [5], the “Interaction With LEF-1, share of wild type β-catenin interaction” value was “— (Interactions marked by — correspond to 60–100% of the wild type interaction)”.
